Test results published in publication PMC8612531 (Science Advances, 2021).
Substitutions are numbered along the chain they refer to. Names and notes keep the numbering of the source.

B1: XccBphP R525E-R527E full-length variant, apoprotein (natural protein)
chain: STATNPLDLDVCAREPIHIPGLIQPYGVLLVIDPADGRIVQASTTAADLLGVPMAALLGMPYTQVLTLPEAQPFAVDDQPQHLMHAEVRFPQRATPPASAWVAAWHLYPQQWLVEMEPRDARLLDVTLREAMPLLRSVERDPGIAEAAVRVAKGLRSLIGFDRVMIYRFDEEWNGDIIAEARKPELEAYLGLHYPASDIPAQARALYLRNRVRQIADVGYQPSPIQPTVHPQLGTPVDLSDVSLRSVSPVHLEYLANMGVTATLVASIVVNDALWGLISCHHYSPHFTNHAMRDVTDAVARTLAGRIGALQAVARARLESVLLTVREKLITDFNDAEHMTVELLDDMAPDLMDVVDADGVAIFHGNDISRHGTTPDVAALRRIRDHIESEHHEALREDAVGALHVDAIGEVFPELADLAPLAAGFIFVPLMPQSRSALLWTRREQIQQIKWAGNPQLAKLEDIPNSRLSPRKSFDLWQQTVRGRARRWSPLHLESARSLRVLIELMERKRFQQDFTLLEASLSELEDGVAIIERGTANAAHRLLFVNTAFADVCGSDVAELIGRELQTLYASDAPRANVELLQDALRNGRAAYVTLPLQVSDGAPVYRQFHLEPLPSPSGVTAHWLLQLRDPE
B2: XccBphP G454A variant, holoprotein (biliverdin-bound) (natural protein)
chain: B1 chain with G453A, E524R, E526R
modifications: biliverdin IXα (BV) covalently bound to Cys13 (thioether linkage)
B3: XccBphP A453E variant, apoprotein (natural protein)
chain: B1 chain with A452E, E524R, E526R
B4: XccBphP G454E full-length variant, apoprotein (natural protein)
chain: B1 chain with G453E, E524R, E526R
B5: XccBphP G454E full-length variant, holoprotein (biliverdin-bound) (natural protein)
chain: B1 chain with G453E, E524R, E526R
modifications: biliverdin IXα (BV) covalently bound to Cys13 (thioether linkage)
B6: XccBphP W478A variant, apoprotein (natural protein)
chain: B1 chain with W477A, E524R, E526R
B7: XccBphP F512P variant, apoprotein (natural protein)
chain: B1 chain with F511P, E524R, E526R
B8: XccBphP G454A variant, apoprotein (natural protein)
chain: B1 chain with G453A, E524R, E526R
B9: XccBphP W452A-G454E variant, apoprotein (natural protein)
chain: B1 chain with W451A, G453E, E524R, E526R
B10: XccBphP wild-type full-length bacteriophytochrome, apoprotein (natural protein)
chain: B1 chain with E524R, E526R

How the values were obtained:
A0A0H2 = test: SEC-MALS
SEC-MALS = target: the molecule itself; test: SEC-MALS
SEC = target: the molecule itself; test: SEC
crystal structure = target: the molecule itself; test: crystal structure

Row | Protein | stoichiometry N (SEC-MALS) | other results
1 | B1 | 2 | percent monomer (main peak) (A0A0H2): Monomer (~85%); percent dimer (secondary peak) (SEC-MALS): ~15%
2 | B2 | – | binding result (SEC): binds
3 | B3 | 2 | –
4 | B4 | 2 | –
5 | B5 | – | binding result (crystal structure): binds
6 | B6 | 2 | –
7 | B7 | 2 | –
8 | B8 | 2 | –
9 | B9 | 2 | –
10 | B10 | 2 | –
